Results on four molecules are retold here after US20180311371A1 (Hoffmann-La Roche, published 2018).

Broadly, the EC50 is the concentration needed to bring the measured effect to its halfway point. Read a low EC50 as greater potency.

The chains are these.
T1: human TPBG (trophoblast glycoprotein), full length, cell surface expressed (human, UniProt Q13641 32-420)
T1 sequence: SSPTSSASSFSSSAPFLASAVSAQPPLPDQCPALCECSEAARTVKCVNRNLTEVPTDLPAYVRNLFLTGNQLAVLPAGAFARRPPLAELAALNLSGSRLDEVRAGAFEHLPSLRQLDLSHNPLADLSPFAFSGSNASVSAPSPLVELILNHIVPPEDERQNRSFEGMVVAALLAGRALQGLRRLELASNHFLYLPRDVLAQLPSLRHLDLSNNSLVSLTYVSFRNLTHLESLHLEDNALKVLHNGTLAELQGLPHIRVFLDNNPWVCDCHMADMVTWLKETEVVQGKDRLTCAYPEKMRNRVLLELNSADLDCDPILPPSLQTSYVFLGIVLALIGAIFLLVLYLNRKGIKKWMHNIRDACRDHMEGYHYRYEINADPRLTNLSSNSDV

B1: 097 Fab coupled to PE24 (LR8M) via sortase coupling (Fab)
heavy: EVQLLESGGGLAQPGGSLRLSCAASGFTFNNDAMTWVRQAPGKGLEWVSAISGSGGSTYYADSVKGRFTISRDNSKNTLYLQMNSLRAEDTAVYYCAKGGSWGDWYYYFYPMDVWGQGTTVTVSSASTKGPSVFPLAPSSKSTSGGTAALGCLVKDYFPEPVTVSWNSGALTSGVHTFPAVLQSSGLYSLSSVVTVPSSSLGTQTYICNVNHKPSNTKVDKKVEPKSCGGGSLPETGGGRHRQPRGWEQLYPTGAEFLGDGGAVSFSTRGTQNWTVERLLQAHRQLEEGGYVFVGYHGTFLEAAQSIVFGGVRARSQDLDAIWAGFYIAGDPALAYGYAQDQEPDAAGRIRNGALLRVYVPRSSLPGFYATSLTLAAPEAAGEVERLIGHPLPLRLDAITGPEESGGRLETILGWPLAERTVVIPSAIPTDPRNVGGDLDPSSIPDSEAAISALPDYASQPGKPPREDL
light: not shown
B2: H8 Fab coupled to PE24 (LR8M) via sortase coupling (Fab, V domains shown)
VH: EVQLQQSGPDLVKPGASVKISCKASGYSFTGYYMHWVKQSHGKSLEWIGRINPNNGVTLYNQKFKDKAILTVDKSSTTAYMELRSLTSEDSAVYYCARSTMITNYVMDYWGQVTSVTVSS
VL: SIVMTQTPTFLLVSAGDRVTITCKASQSVSNDVAWYQQKPGQSPTLLISYTSSRYAGVPDRFIGSGYGTDFTFTISTLQAEDLAVYFCQQDYNSPPTFGGGTKLEIKR
B3: 051 Fab coupled to PE24 (LR8M) via sortase coupling (Fab)
heavy: EVQLLESGGGLLQPGGSLRLSCAASGFTFSIYWMTWVRQAPGKGLEWVSAISGSGGSTYYADSVKGRFTISRDNSKNTLYLQMNSLRAEDTAVYYCAKDYYSNVYWGQGTLVTVSSASTKGPSVFPLAPSSKSTSGGTAALGCLVKDYFPEPVTVSWNSGALTSGVHTFPAVLQSSGLYSLSSVVTVPSSSLGTQTYICNVNHKPSNTKVDKKVEPKSCGGGSLPETGGGRHRQPRGWEQLYPTGAEFLGDGGAVSFSTRGTQNWTVERLLQAHRQLEEGGYVFVGYHGTFLEAAQSIVFGGVRARSQDLDAIWAGFYIAGDPALAYGYAQDQEPDAAGRIRNGALLRVYVPRSSLPGFYATSLTLAAPEAAGEVERLIGHPLPLRLDAITGPEESGGRLETILGWPLAERTVVIPSAIPTDPRNVGGDLDPSSIPDSEAAISALPDYASQPGKPPREDL
light: DIQMTQSPSSVSASVGDRVTITCRASQGIYSWLAWYQQKPGKAPKLLIYAASSLQSGVPSRFSGSGSGTDFTLTISSLQPEDFATYYCQQSDSPPYTFGQGTKLEIKRTVAAPSVFIFPPSDEQLKSGTASVVCLLNNFYPREAKVQWKVDNALQSGNSQESVTEQDSKDSTYSLSSTLTLSKADYEKHKVYACEVTHQGLSSPVTKSFNRGEC
B4: 091 Fab coupled to PE24 (LR8M) via sortase coupling (Fab)
heavy: EVHLLESGGGLVHPGGSLRLSCAASGFTFRSDAMHWVRQAPGKGLEWVSGVSGSGGSPYYADSVKGRFTISRDDSKTTLYLQMNSLRAEDTAVYYCATGGSIAGSYYYYPMDVWGQGTTVTVSSASTKGPSVFPLAPSSKSTSGGTAALGCLVKDYFPEPVTVSWNSGALTSGVHTFPAVLQSSGLYSLSSVVTVPSSSLGTQTYICNVNHKPSNTKVDKKVEPKSCGGGSLPETGGGRHRQPRGWEQLYPTGAEFLGDGGAVSFSTRGTQNWTVERLLQAHRQLEEGGYVFVGYHGTFLEAAQSIVFGGVRARSQDLDAIWAGFYIAGDPALAYGYAQDQEPDAAGRIRNGALLRVYVPRSSLPGFYATSLTLAAPEAAGEVERLIGHPLPLRLDAITGPEESGGRLETILGWPLAERTVVIPSAIPTDPRNVGGDLDPSSIPDSEAAISALPDYASQPGKPPREDL
light: not shown

The first assay has as its target T1, human TPBG (trophoblast glycoprotein), …. The experiment in a line: cell-based or functional assay.
Regarding B1, the “EC50 cytotoxicity, sortase-coupled Fab-PE, MCF7” value (“EC50 cytotoxicity” for short) was determined as 0.054 nM and the “X-fold higher potency compared to TPBG(H8)PE, MCF7” value (shortened to “X-fold higher potency”) was 1.1 fold.

Regarding B2, the “EC50 cytotoxicity” value is 0.059 nM.

As to B3, the “EC50 cytotoxicity” value amounted to 0.036 nM and the “X-fold higher potency” value turned out to be 1.7 fold.

On to B4, for which the “EC50 cytotoxicity” value was found to be 0.033 nM and the “X-fold higher potency” value was determined as 1.8 fold.

Another assay shares this target.
Experiment: not given
As for B1, the EC50 was 0.63 nM.

B2 displayed an EC50 of 1.56 nM. This EC50 lies about 2.5-fold higher than the previous one.

B3 gave an EC50 of 0.67 nM.

In turn, B4 came in with an EC50 of 0.61 nM.
